One block for each binder: values may come before it. Starred links: 1 amine or outer side, 2 acyl side, 3 side chain; linkers in the order of their positions; H or OH if unused. Non-standard residues stand in square brackets, D forms with d. No end group written: not given here. *: point of attachment. 4‑nitrohippuryl = O=C(NCC(=O)*)c1ccc([N+](=O)[O-])cc1; Benzoyl(4-(pyrrol-1-yl)) = O=C(c1ccc(-n2cccc2)cc1)*; bis(2,3-dihydroxybenzyl) = not defined here; 10‑hydroxydecanoyl = O=C(CCCCCCCCCO)*; Cysteamide = C(CS[*:3])N[*:1]; Dap = NC[C@H](N)C(=O)O
Assays:
[1] = target: protein kinase C δ, Q05655; assay: cell-based or functional assay
other PKC isoforms = assay: cell-based or functional assay
a subset of other PKCs = assay: cell-based or functional assay
[2] = target: T1, acetyl-Pro-Arg-Lys-Arg-Glu-Gly-Ser-Val-Arg-Arg-Arg-NH2
T1 chain: PRKREGSVRRR

Fold selectivity (IC50), PKC ζ = 1 [1]: 693 fold
IC50, PKC kinase assay (33P, peptide substrate) [1]: 5.2 µM
Binder: {bis(2,3-dihydroxybenzyl)}-RRQG[Dap](4‑nitrohippuryl)FMYF-Cysteamide (reading uncertain) [Compound G (doubly alkylated analogue of F)]

selectivity for PKCα versus other PKC isoforms (other PKC isoforms): < 3 fold
Binder: Ac-ARRGALR[Dap](Benzoyl(4-(pyrrol-1-yl)))A-Cysteamide [compound 3 (lead from library III)]

IC50, PKC kinase assay (33P, peptide substrate) [1]: 0.025 µM
Selectivity (IC50 relative to PKC βI = 1) [1]: 3.1 fold
Binder: H-RRQG[Dap]FMYF-Cysteamide (not fully specified (residue 5)) [Compound E (nonacylated free amine)]

selectivity for PKC ζ versus a subset of other PKCs (a subset of other PKCs): < 10 fold
Binder: Ac-RRQG[Dap](10‑hydroxydecanoyl)FMYF-Cysteamide [Compound B]

B1: protein kinase C ε (protein)
chain: MVVFNGLLKIKICEAVSLKPTAWSLRHAVGPRPQTFLLDPYIALNVDDSRIGQTATKQKTNSPAWHDEFVTDVCNGRKIELAVFHDAPIGYDDFVANCTIQFEELLQNGSRHFEDWIDLEPEGRVYVIIDLSGSSGEAPKDNEERVFRERMRPRKRQGAVRRRVHQVNGHKFMATYLRQPTYCSHCRDFIWGVIGKQGYQCQVCTCVVHKRCHELIITKCAGLKKQETPDQVGSQRFSVNMPHKFGIHNYKVPTFCDHCGSLLWGLLRQGLQCKVCKMNVHRRCETNVAPNCGVDARGIAKVLADLGVTPDKITNSGQRRKKLIAGAESPQPASGSSPSEEDRSKSAPTSPCDQEIKELENNIRKALSFDNRGEEHRAASSPDGQLMSPGENGEVRQGQAKRLGLDEFNFIKVLGKGSFGKVMLAELKGKDEVYAVKVLKKDVILQDDDVDCTMTEKRILALARKHPYLTQLYCCFQTKDRLFFVMEYVNGGDLMFQIQRSRKFDEPRSRFYAAEVTSALMFLHQHGVIYRDLKLDNILLDAEGHCKLADFGMCKEGILNGVTTTTFCGTPDYIAPEILQELEYGPSVDWWALGVLMYEMMAGQPPFEADNEDDLFESILHDDVLYPVWLSKEAVSILKAFMTKNPHKRLGCVASQNGEDAIKQHPFFKEIDWVLLEQKKIKPPFKPRIKTKRDVNNFDQDFTREEPVLTLVDEAIVKQINQEEFKGFSYFGEDLMP
Km of the peptide substrate [2]: 5.9 µM (PKCε)

selectivity for PKC ζ versus a subset of other PKCs (a subset of other PKCs): < 10 fold
B2: Compound C (peptide)
peptide: Ac-RRQG[Dap](4‑nitrohippuryl)FMYF-Cysteamide
SMILES: CSCC[C@H](NC(=O)[C@H](Cc1ccccc1)NC(=O)[C@H](CNC(=O)CNC(=O)c1ccc([N+](=O)[O-])cc1)NC(=O)CNC(=O)[C@H](CCC(N)=O)NC(=O)[C@H](CCCNC(=N)N)NC(=O)[C@H](CCCNC(=N)N)NC(C)=O)C(=O)N[C@@H](Cc1ccc(O)cc1)C(=O)N[C@@H](Cc1ccccc1)C(=O)NCCS

IC50, PKC kinase assay [1]: 50 µM
Binder: Ac-RRQG[Dap](Ac)FMYF-Cysteamide [Compound A (diacetylated consensus derivative)]

selectivity for PKCα versus this isoform [1]: 2730 fold
Binder: ARRGALR[Dap](Benzoyl(4-(pyrrol-1-yl)))A-Cysteamide (also: further groups not given here) [compound 6 (primary lead from library IV)]
